Laboratory results from patent publication US20230038521A1 (INSTITUTE OF SCIENCE TOKYO, published 2023).
Values belong to the binder of their own block, whether it stands above or below them.

Biological target: T1, human HMGB1 protein (human, UniProt P09429 1-215)
T1 construct: Non-denatured protein, used as analyte in SPR and added to neurons in the MARCKS phosphorylation assay; also called High Mobility Group Box 1
T1 sequence (looked up): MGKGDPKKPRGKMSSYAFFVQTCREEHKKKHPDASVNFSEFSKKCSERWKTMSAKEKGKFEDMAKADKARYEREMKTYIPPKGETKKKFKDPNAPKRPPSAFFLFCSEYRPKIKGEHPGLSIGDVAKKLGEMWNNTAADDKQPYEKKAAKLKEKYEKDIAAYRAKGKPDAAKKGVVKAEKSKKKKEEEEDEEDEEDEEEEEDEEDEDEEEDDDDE
Experiment: SPR, Biacore T100, antibody immobilized on the chip, human HMGB1 as analyte
Description: The interaction between the human monoclonal antibody group of the present invention and human HMGB1 protein was compared and examined using SPR. Specifically, using a sensor chip on which each human monoclonal antibody of the present invention was immobilized and human HMGB1 protein as an analyte, the interaction was measured over time with a surface plasmon resonance sensor (“Biacore T100”, manufactured by GE healthcare), to calculate an equilibrium dissociation constant (KD value) as an index of the antibody affinity.

Kd: 0.0217 nM
B1: monoclonal antibody #127 (antibody, human IgG1, kappa, V domains shown)
VH: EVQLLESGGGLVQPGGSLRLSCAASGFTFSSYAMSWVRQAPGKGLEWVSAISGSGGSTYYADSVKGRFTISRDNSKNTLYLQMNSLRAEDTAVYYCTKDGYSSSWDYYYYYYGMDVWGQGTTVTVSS
VL: DIQMTQSPSSLSASVGDRVTITCRASQSVSSYLAWYQQKPGKAPKLLIYEASNLQAGVPSRFSGSGSGTDFTLTINSLQPEDFATYYCLQHNSNPLTFGQGTKLEIKT
notes: Human IgG from the ADLib system (DT40 cell library); kappa light chain

Kd: 5.54 nM
B2: monoclonal antibody #213-001 (antibody, human IgG1, kappa, V domains shown)
VH: EVQLVQSGAEVKKPGSSVKVSCKASGGTFSSYAISWVRQAPGQGLEWMGGIIPIFGRANYAQKFQGRVTITADESTSTAYMELSSLRSEDTAVYYCASLVTDYWGQGTLVTVSS
VL: DIQMTQSPSSLSASTGDRVTITCRASQGISSYLAWYQQKPGKAPKLLIYAASTLQSGVPSRFSGSGSGTDFTLTISSLQPEDFATYYCQQANSFPITFGQGTRLEIKT
notes: Human IgG from the ADLib system; kappa light chain
